What was measured:
[1] = molecular target: T1, recombinant human IL-8, (ser-IL-8)72 (human, UniProt P10145)
[2] = molecular target: T1, recombinant human IL-8, (ser-IL-8)72; experiment: competitive binding RIP with unlabeled IL-8, Scatchard analysis
IL-8 [3] = experiment: Competitive binding ELISA (epitopes), biotinylated mAb vs unlabeled mAb; design: species or system human; details: ratio of biotinylated mAb to unlabeled mAb 1:100
Description: To assess whether these monoclonal antibodies bound to the same epitopes, a competitive binding ELISA was performed. […] Thus, mAb 4.1.3 and mAb 5.2.3 bind to a different epitope(s) than the epitope recognized by monoclonal antibodies 12.3.9, 4.8 and 5.12.14.

IL-8 [4] = experiment: Neutrophil chemotaxis induced by IL-8, Boyden chamber method; type: cell-based, human; details: 1:10 ratio of IL-8 to mAb; IL-8 20 nM
Description: The ability of the anti-IL-8 antibodies to block neutrophil chemotaxis induced by IL-8 was tested as follows. Neutrophil chemotaxis induced by IL-8 was determined using a Boyden chamber method (Larsen, et al., Science 243:1464 (1989)). One hundred μl of human neutrophils (10^6 cells/ml) resuspended in RPMI containing 0.1% BSA were placed in the upper chamber and 29 μl of the IL-8 (20 nM) with or without monoclonal antibodies were placed in the lower chamber. Cells were incubated for 1 hr at 37° C. Neutrophils migrated into the lower chamber were stained with Wright's Giemsa stain and counted under the microscope (100×magnification). Approximately 10 different fields per experimental group were examined. Neutralizing monoclonal antibodies 5.12.14 and 4.1.3 blocked almost 70% of the neutrophil chemotactic activity of IL-8 at 1:10 ratio of IL-8 to mAb.

[5] = Isoelectric focusing (IEF) pattern; type: physicochemical; details: IEF polyacrylamide gel pH 3-9
Description: The isoelectric focusing (IEF) pattern of each mAb was determined by applying purified antibodies on an IEF polyacrylamide gel (pH 3-9, Pharmacia) using the Fast gel system (Pharmacia, Piscataway, N.J.). The IEF gel was pretreated with pharmalyte containing 1% Triton X100 (Sigma, St. Louis, Mo.) for 10 min before loading the samples. The IEF pattern was visualized by silver staining according to the instructions from the manufacturer. All of the monoclonal antibodies had different IEF patterns, confirming that they originated from different clones.

IL-8 [6] = experiment: Receptor binding assay: 125I-IL-8 bound to human neutrophils in presence of mAbs; details: 1:25 molar ratio of IL-8 to mAb
Description: To assess the ability of these monoclonal antibodies to neutralize IL-8 activity, the amount of ^125 I-IL-8 bound to human neutrophils in the presence of various amounts of culture supernatants and purified monoclonal antibodies was measured. Neutrophils were prepared by using Mono-Poly Resolving Medium (M-PRM) (Flow Lab. Inc., McLean, Va). Briefly fresh, heparinized human blood was loaded onto M-PRM at a ratio of blood to medium, 3.5:3.0, and centrifuged at 300×g for 30 min at room temperature. Neutrophils enriched at the middle layer were collected and washed once in PBS. Such a preparation routinely contained greater than 95% neutrophils according to the Wright's Giemsa staining. The receptor binding assay was done as follows. 50 μl of ^125 I-IL-8 (5 ng/ml) was incubated with 50 μl of unlabeled IL-8 (100 μg/ml) or monoclonal antibodies in PBS containing 0.1% BSA for 30 min at room temperature. The mixture was then incubated with 100 μl of neutrophils (10^7 cells/ml) for 15 min at 37° C. The ^125 I-IL-8 bound was separated from the unbound material by loading mixtures onto 0.4 ml of PBS containing 20% sucrose and 0.1% BSA and by centrifugation at 300×g for 15 min. The supernatant was removed by aspiration and the radioactivity associated with the pellet was counted in a gamma counter.

Human IL-8 [7] = experiment: IL-8 mediated release of elastase by neutrophils (mAb 5.12.14); type: cell-based; details: 1:1 ratio of IL-8 to mAb
Description: One of the antibodies, mAb 5.12.14, was further studied to determine whether it could block the IL-8 mediated release of elastase by neutrophils. Briefly, human neutrophils were resuspended in Hanks balanced salt solution (Gibco, Grand Island, N.Y.) containing 1.0% BSA, Fraction V (Sigma, St. Louis, Mo.), 2 mg/ml alpha-D-glucose (Sigma), 4.2 mM sodium bicarbonate (Sigma) and 0.01M HEPES, pH 7.1 (JRH Bioscience, Lenexa, Kans.). A stock of cytochalasin B (Sigma) was prepared (5 mg/ml in dimethylsulfoxide (Sigma) and stored at 2°-8° C. Cytochalasin B was added to the neutrophil preparation to produce a final concentration of 5 μg/ml, and incubated for 15 min at 37° C. Human IL-8 was incubated with mAb 5.12.14 (20 μl), or a negative control antibody, in 1 ml polypropylene tubes (DBM Scientific, San Fernando, Calif.) for 30 min at 37° C. The final assay concentrations of IL-8 were 50 and 500 nM. The monoclonal antibodies were diluted to produce the following ratios (IL-8:Mab): 1:50, 1:10, 1:2, 1:1, and 1:0.25. Cytochalasin B-treated neutrophils were added (100 μl/tube) and incubated for 2 hours at 25° C. The tubes were centrifuged (210×g, 2°-8° C.) for 10 min, and supernatants were transferred to 96 well tissue culture plates (30 μl/well). […] Absorbance was measured at 405 nm (SLT 340 ATTC plate reader, SLT Lab Instruments, Austria).

IL-8 [8] = experiment: Radioimmune precipitation test (RIP): capture of soluble 125I-IL-8; type: binding, human
Description: The ability of these monoclonal antibodies to capture soluble ^125 I-IL-8 was assessed by a radioimmune precipitation test (RIP). Briefly, tracer ^125 I-IL-8 (4×10^4 cpm) was incubated with various dilutions of the monoclonal anti-IL-8 antibodies in 0.2 ml of PBS containing 0.5% BSA and 0.05% Tween 20 (assay buffer) for 1 hr at room temperature. One hundred microliters of a predetermined concentration of goat anti-mouse Ig antisera (Pel-Freez, Rogers, Ariz.) were added and the mixture was incubated at room temperature for 1 hr. Immune complexes were precipitated by the addition of 0.5 ml of 6% polyethylene glycol (M.W. 8000) kept at 4° C. After centrifugation at 2,000×g for 20 min at 4° C., the supernatant was removed by aspiration and the radioactivity remaining in the pellet was counted in a gamma counter. Percent specific binding was calculated as (precipitated cpm--background cpm)/(total cpm--background cpm).

Human IL-8 [9] = experiment: Human IL-8 mediated neutrophil chemotaxis, 96-well chamber, calcein AM-labeled neutrophils; type: cell-based
Description: Human neutrophils were isolated, counted and resuspended at 5×10^6 cells/ml in Hank's balanced salt solution (abbreviated HBSS; without calcium and magnesium) with 0.1% bovine serum albumin. The neutrophils were labeled by adding calcein AM (Molecular Probe, Eugene, Oreg.) at a final concentration of 2.0 μM. Following a 30 minute incubation at 37° C., cells were washed twice with HBSS-BSA and resuspended at 5×10^6 cells/ml.
Chemotaxis experiments were carried out in a Neuro Probe (Cabin John, Md.) 96-well chamber, model MBB96. Experimental samples (buffer only control, IL-8 alone or IL-8 +Fabs) were loaded in a Polyfiltronics 96-well View plate (Neuro Probe Inc.) placed in the lower chamber. […]
The relative number of neutrophils migrating through the filter (Neutrophil migration index) was determined by measuring fluorescence intensity of the filter and the fluorescence intensity of the contents of the lower chamber and adding the two values together. Fluorescence intensity was measured with a CytoFluor 2300 fluorescent plate reader (Millipore Corp. Bedford, Mass.) configured to read a Corning 96-well plate using the 485-20 nm excitation filter and a 530-25 emission filter, with the sensitivity set at 3.

B1: anti-IL-8 monoclonal antibody 5.12.14 (antibody, V domains shown)
VH: EVQLVESGGGLVPPGGSLKLSCAASGFIFSSYGMSWVRQTPGKSLELVATINNNGDSTYYPDSVKGRFTISRDNAKNTLYLQMSSLKSEDTAMFYCARALISSATWFGYWGQGTLVTVSA
VL: DIVMTQSQKFMSTSVGDRVSVTCKASQNVGTNVAWYQQKPGQSPKALIYSSSYRYSGVPDRFTGSGSGTDFTLTISHVQSEDLADYFCQQYNIYPLTFGPGTKLELKR
neutrophil chemotaxis induced by IL-8 (Boyden chamber) [1]: 70% | Kd [2]: 0.3 nM

B2: mAb 5.12.14: murine monoclonal antibody against human IL-8, isotype IgG2a, hybridoma ATCC HB 11553 (antibody, V domains shown)
VH: ASGFIFSSYGMSWVRQTPGKSLELVATINNNGDSTYYPDSVKGRFTISRDNAKNTLYLQMSSLKSEDTAMFYCARALISSATWFGYWGQGTLVTVSAAKTTAPSVYP
VL: KASQNVGTNVAWYQQKPGQSPKALIYSSSYRYSGVPDRFTGSGSGTDFTLTISHVQSEDLADYFCQQYNIYPLTFGPGTKLELKRADAAPPTVSIFPPFE
inhibition of binding of biotinylated mAb 4.1.3 by unlabeled mAb (IL-8 [3]): not by mAb 5.12.14 | inhibition of binding of biotinylated mAb 5.12.14 by unlabeled mAb (IL-8 [3]): significantly inhibited | block of the neutrophil chemotactic activity of IL-8 (IL-8 [4]): ~70% | pI [5]: 6.2-7.4 | inhibition of the binding of IL-8 to human neutrophils (IL-8 [6]): greater than 85% | block of release of elastase from neutrophils (Human IL-8 [7]): effectively block | capture of soluble 125I-IL-8 in the RIP (IL-8 [8]): very efficiently | % Specific Binding to IL-8 (IL-8 [8]; RIP, soluble 125I-IL-8): 98%

B3: 5.12.14 Fab (antibody)
heavy: EVQLVESGGGLVPPGGSLKLSCAASGFIFSSYGMSWVRQTPGKSLELVATINNNGDSTYYPDSVKGRFTISRDNAKNTLYLQMSSLKSEDTAMFYCARALISSATWFGYWGQGTLVTVSAASTKGPSVFPLAPSSKSTSGGTAALGCLVKDYFPEPVTVSWNSGALTSGVHTFPAVLQSSGLYSLSSVVTVPSSSLGTQTYICNVNHKPSNTKVDKKVEPKSCDKTHT
light: B2 VL
inhibition of human IL-8 mediated neutrophil chemotaxis (Human IL-8 [9]): inhibition

B4: 6G.4.25 Fab (antibody)
heavy: EIQLQQSGPELMKPGASVKISCKASGYSFSSHYMHWVKQSHGKSLEWIGYIDPSNGETTYNQKFKGKATLTVDTSSSTANVHLSSLTSDDSAVYFCARGDYRYNGDWFFDVWGAGTTVTVSSASTKGPSVFPLAPSSKSTSGGTAALGCLVKDYFPEPVTVSWNSGALTSGVHTFPAVLQSSGLYSLSSVVTVPSSSLGTQTYICNVNHKPSNTKVDKKVEPKSCDKTHT
light: DIVMTQTPLSLPVSLGDQASISCRSSQSLVHGIGNTYLHWYLQKPGQSPKLLIYKVSNRFSGVPDRFSGSGSGTDFTLRISRVEAEDLGLYFCSQSTHVPLTFGAGTKLELKRAVAAPTVFIFPPSSEQLKSGTASVVCLLNNFYPREAKVQWKVDNALQSGNSQESVTEQDSKDSTYSLSSTLTLSKADYEKHKVYACEVTHQGLSSPVTKSFNRGEC
inhibition of human IL-8 mediated neutrophil chemotaxis (Human IL-8 [9]): inhibition

Reference: patent US5686070A, “Methods for treating bacterial pneumonia” (Genentech, Inc., priority 1995, dated 1997)
